B1: Eukaryotic translation initiation factor 4E1 (Drosophila melanogaster (Fruit fly)), P48598 (parent)
chain: MQSDFHRMKNFANPKSMFKTSAPSTEQGRPEPPTSAAAPAEAKDVKPKEDPQETGEPAGNTATTTAPAGDDAVRTEHLYKHPLMNVWTLWYLENDRSKSWEDMQNEITSFDTVEDFWSLYNHIKPPSEIKLGSDYSLFKKNIRPMWEDAANKQGGRWVITLNKSSKTDLDNLWLDVLLCLIGEAFDHSDQICGAVINIRGKSNKISIWTADGNNEEAALEIGHKLRDALRLGRNNSLQYQLHKDTMVKQGSNVKSIYTL
partner: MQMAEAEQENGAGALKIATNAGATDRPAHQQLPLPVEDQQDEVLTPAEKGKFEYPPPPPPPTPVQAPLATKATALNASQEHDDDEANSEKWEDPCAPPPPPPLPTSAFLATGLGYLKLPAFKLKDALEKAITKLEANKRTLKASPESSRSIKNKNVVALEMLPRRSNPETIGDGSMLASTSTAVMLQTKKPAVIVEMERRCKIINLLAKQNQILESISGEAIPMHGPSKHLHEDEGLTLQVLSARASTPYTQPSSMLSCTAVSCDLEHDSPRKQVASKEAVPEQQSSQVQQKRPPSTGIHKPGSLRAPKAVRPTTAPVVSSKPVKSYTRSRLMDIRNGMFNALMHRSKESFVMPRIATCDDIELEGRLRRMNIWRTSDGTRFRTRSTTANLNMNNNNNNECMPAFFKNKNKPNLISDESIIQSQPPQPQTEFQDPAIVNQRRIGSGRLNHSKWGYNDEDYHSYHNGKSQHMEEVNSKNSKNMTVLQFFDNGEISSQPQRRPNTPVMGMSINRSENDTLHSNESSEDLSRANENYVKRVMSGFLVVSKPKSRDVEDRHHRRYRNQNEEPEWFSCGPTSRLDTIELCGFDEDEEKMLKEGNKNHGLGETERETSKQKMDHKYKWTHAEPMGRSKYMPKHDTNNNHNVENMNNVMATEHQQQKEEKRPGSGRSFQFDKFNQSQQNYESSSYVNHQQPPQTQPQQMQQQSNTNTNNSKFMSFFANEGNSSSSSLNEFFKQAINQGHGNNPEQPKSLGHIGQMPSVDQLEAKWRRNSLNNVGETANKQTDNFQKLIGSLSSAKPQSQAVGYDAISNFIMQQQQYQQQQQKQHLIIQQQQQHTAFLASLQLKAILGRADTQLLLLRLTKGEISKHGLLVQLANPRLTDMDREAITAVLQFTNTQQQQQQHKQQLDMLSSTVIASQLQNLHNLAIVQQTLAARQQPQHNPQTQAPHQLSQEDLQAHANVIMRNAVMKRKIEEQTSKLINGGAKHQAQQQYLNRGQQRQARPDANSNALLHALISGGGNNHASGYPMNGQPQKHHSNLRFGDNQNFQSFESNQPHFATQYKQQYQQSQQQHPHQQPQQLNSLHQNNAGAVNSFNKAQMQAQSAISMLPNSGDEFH
B2: Protein cup (Drosophila melanogaster (Fruit fly)), Q9VMA3 (parent)
chain: B1 partner
partner: B1 chain

Variants of: B1
Settings: with cup_drome cup, Q9VMA3

Row | Variant | effect of a mutation on the interaction
1 | E106A | disrupting interaction

Variants of: B2
Settings: with if4e_drome eIF4E1, P48598

Row | Variant | effect of a mutation on the interaction
2 | Y327A | disrupting interaction
3 | L364A;L368A | disrupting interaction

Variants of: B2
Settings: with if4e_drome eIF4E1, P48598
Remark: another data set of the same source

Row | Variant | effect of a mutation on the interaction
4 | Y327A | decreasing interaction
5 | Y327A;L364A;L368A | disrupting interaction

— IntAct's records for PubMed 14685270
